Experimental data from patent JP2008058208A.

Biological target: T1, C−反応性タンパク(CRP), ヒトCRP抗原 (human) (UniProt P02741)
T1 sequence (looked up): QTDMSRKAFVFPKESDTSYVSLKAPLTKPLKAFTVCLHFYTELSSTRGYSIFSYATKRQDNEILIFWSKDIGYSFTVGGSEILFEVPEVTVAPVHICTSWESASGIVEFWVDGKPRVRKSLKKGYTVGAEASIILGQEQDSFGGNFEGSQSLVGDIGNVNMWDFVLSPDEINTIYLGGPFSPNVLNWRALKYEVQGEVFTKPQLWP
Test: sandwich immunochromatography, His20 as capture and as gold-colloid label, read by eye after 15 min

lowest detectable CRP concentration: 1 ng/mL
B1: 抗CRPscFv抗体No.20 (His-tagged scFv, His20) (scFv, not shown: small tags and cut ends)
scFv: MAQVKLPESGAELVKPGASVKLSCTPSGFNIKDTYIHWVRQRPGQGLEWIGRIDPANGHTRYAPKFQGKATLTADASSNTAYLHLSSLTSEDTAVYYCPRIVWYSGGYAMDYWGQGTTVTVSSGGGGSGGGGSGGGGSDIELTQSPSSMYASLGERVTITCKASQDINSYLSWFQQKPGKSPKTLIYRANRLVDGVPSRFSGSGSGQDYSLTISSLKYEDMGIYYCLQYDEFPLTFGGGTKLEIKRAA
